# Results taken from paper PMC10590275 (Nature structural & molecular biology, 2023).
# Tests used:
# [1] = biological target: human dynein_(MOTOR)^MT-B (microtubule-bound mutant motor domain) (human | T. thermophilus); assay: mass photometry
# [2] = biological target: the molecule itself; assay: mass photometry
binder,measurement,setting,value
human LIS1-SNAP (natural protein) VLSQRQRDELNRAIADYLRSNGYEEAYSVFKKEAELDVNEELDKKYAGLLEKKWTSVIRLQKKVMELESKLNEAKEEFTSGGPLGQKRDPKEWIPRPPEKYALSGHRSPVTRVIFHPVFSVMVSASEDATIKVWDYETGDFERTLKGHTDSVQDISFDHSGKLLASCSADMTIKLWDFQGFECIRTMHGHDHNVSSVAIMPNGDHIVSASRDKTIKMWEVQTGYCVKTFTGHREWVRMVRPNQDGTLIASCSNDQTVRVWVVATKECKAELREHEHVVECISWAPESSYSSISEATGSETKKSGKPGPFLLSGSRDKTIKMWDVSTGMCLMTLVGHDNWVRGVLFHSGGKFILSCADDKTLRVWDYKNKRCMKTLNAHEHFVTSLDFHKTAPYVVTGSVDQTVKVWECR,stoichiometry N,[1],1 LIS1 dimer per dynein_(MOTOR) monomer
same,stoichiometry N,[2],2
